Read-outs that look alike come from different tables or passages of the source.
What was measured:
Test in all cases: competition
Fis [1] = molecular target: T1, Fis (Escherichia coli, UniProt P0A6R3 1-98)
Fis [2] = molecular target: T1, Fis; remark: listed apart in the source
Fis [3] = molecular target: T1, Fis; remark: listed apart in the source

T1 sequence (P0A6R3 whole entry): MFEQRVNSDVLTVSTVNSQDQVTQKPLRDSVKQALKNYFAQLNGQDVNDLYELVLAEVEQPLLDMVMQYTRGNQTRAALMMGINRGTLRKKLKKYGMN

B1: F1 (dsDNA)
DNA 1: AAATTTGTTTGAATTTTGAGCAAATTT
DNA 2: AAATTTGCTCAAAATTCAAACAAATTT
**Q.** Does B1 bind (Fis [1])?
**A.** Result: binds

B2: F29 (dsDNA)
DNA 1: AAATTTGTTTGGGCGCTGAGCAAATTT
DNA 2: AAATTTGCTCAGCGCCCAAACAAATTT
**Q.** Does B2 bind (Fis [2])?
**A.** Result: binds

B3: F28 (dsDNA)
DNA 1: AAATTTGTTTGAGCGTTGAGCAAATTT
DNA 2: AAATTTGCTCAACGCTCAAACAAATTT
**Q.** Does B3 bind (Fis [3])?
**A.** Result: binds

— publication PMC4579036
